The results in this text go back to patent US20030082175A1 (Biogen, published 2003).

B1: FLAG-human APRIL (ligand)
chain: DYKDDDDKGPGQVQLQKQKKQHSVLHLVPINATSKDDSDVTEVMWQPALRRGRGLQAQGYGVRIQDAGVYLLYSQVLFQDVTFTMGQVVSREGQGRQETLFRCIRSMPSHPDRAYNSCYSAGVFHLHQGDILSVIIPRARAKLNLSPHGTFLGFVKL
notes: Made from plasmid ps429 (p1448) in 293T cells; also called FLAG-hAPRIL; FLAG-h APRIL
B2: hTRAIN-Fc (Fc fusion, human, UniProt Q9NS68 30-170, looked up)
chain: ESGDCRQQEFRDRSGNCVPCNQCGPGMELSKECGFGYGEDAQCVTCRLHRFKEDWGFQKCKPCLDCAVVNRFQKANCSATSDAICGDCLPGFYRKTKLVGFQDMECVPCGDPPPPYEPHCASKVNLVKIASTASSPRDTAL
notes: not shown: Fc part

For one experiment, the target named is T1, hCD40-Fc (human, UniProt P25942 21-193, limits assumed).
T1 construct: not shown: Fc part
Kind of experiment: ELISA, receptor-Fc coated, FLAG-tagged ligand detected with anti-FLAG M2. A general note: ELISA stands for enzyme-linked immunosorbent assay.

For a further experiment, the target named is T2, FLAG-hBAFF (human, UniProt Q9Y275 136-285, limits assumed).
T2 construct: also called hKayL-440 (hBAFF); hKayL-440; not shown: FLAG tag
In words: immunoprecipitation from conditioned media with ProtG-Sepharose, anti-FLAG M2 blot. The procedure: (§1) Immunoprecipitation experiments: 293T cells were transfected with indicated expression plasmid (Rec-Fc or flag ligand) in 9 cm plate. Transfected cells were left for 5d in 8 ml Optimem media (Gibco-BRL). Immunoprecipitation were performed by mixing 200 ul of each receptor-conditioned media with 200 ul of each ligand-conditioned media+400 ul PBS+10 ul ProtG-Sepharose. These were rotated 1 h on a wheel, washed 4× with 1 ml PBS, then boiled in 50 ul sample buffer (+DTT). 20 ul of each immunoprecipitation was loaded per lane. Reveal blotting was done with 1 ug/ml anti-FLAG M2 mAb (Sigma, St Louis Mo.) and anti-mouse PO (1/2000). A reprobe blot with anti-human-PO was also checked: 100 ul conditioned media was precipitated with MeOH/CHC13/lysozyme. This mix was boiled in 50 ul sample buffer (+DTT) and 20 ul was loaded. A Reveal blot was performed with anti-FLAG mAb M2 (1 ug/ml) and anti-mouse-PO (1/2000).

The target in the experiment “FLAG-human APRIL” is B1. The experiment is described as above. The method, then: as §1

T2 sequence (Q9Y275 136-285 limits assumed): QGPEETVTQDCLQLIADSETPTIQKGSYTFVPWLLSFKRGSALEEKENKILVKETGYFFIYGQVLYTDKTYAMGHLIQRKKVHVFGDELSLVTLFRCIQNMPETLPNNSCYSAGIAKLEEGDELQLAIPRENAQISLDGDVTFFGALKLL
T1 sequence (P25942 21-193 limits assumed): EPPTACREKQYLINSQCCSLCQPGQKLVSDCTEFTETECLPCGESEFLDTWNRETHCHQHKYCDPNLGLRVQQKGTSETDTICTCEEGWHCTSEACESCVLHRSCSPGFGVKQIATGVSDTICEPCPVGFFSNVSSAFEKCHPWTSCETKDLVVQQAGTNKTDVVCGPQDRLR

Regarding B1, the binding result with hCD40-Fc is recorded as “no binding”. For B2, the binding result with FLAG-hBAFF and in the experiment with FLAG-human APRIL was “no binding” each time.
